Assays:
Test in all cases: SPR; Biacore X100; biotinylated histone 3 peptides immobilised on a Biotin CAPture chip (about 10 RU); PHD finger flowed at 10 μl/min, 0.39-400 μM; 300 mM NaCl, 10 mM Tris pH 8, 0.05% Tween 20, 0.1 mM TCEP; equilibrium binding isotherm model
[1] = biological target: histone 3 peptide trimethylated at lysine 4 (H3K4me3)
[2] = biological target: histone 3 peptide monomethylated at lysine 4 (H3K4me1)
[3] = biological target: histone 3 peptide dimethylated at lysine 4 (H3K4me2)

Kd [1]: 31 µM | Kd [2]: 126 µM | Kd [3]: 54.5 µM
Substance: MtING1PHD, PHD finger of Medicago ING1 (M180-K247) (domain or fragment)
